Reference: US20230313187A1, “MODIFICATIONS OF MAMMALIAN CELLS USING ARTIFICIAL MICRO-RNA TO ALTER THEIR PROPERTIES AND THE COMPOSITIONS OF THEIR PRODUCTS” (DNA TWOPOINTO INC., priority 2020, published 2023)

System: Cricetulus griseus dihydrofolate reductase mRNA
Experiment: Growth of a clonal cell line with amiRNA targeted toward dihydrofolate reductase with/without HT and MTX
Type: cell-based
Details: 50 nM MTX, no HT
Description: A monoclonal line (C426) was derived from the pool transfected with the transposon comprising multi-hairpin amiRNA with nucleotide sequence SEQ ID NO: 210 and selected with 800 μg/ml G418 described in Section 6.5.1. Growth of this clonal cell line in the presence and absence of HT and in the absence of HT and presence of 50 nM MTX was compared with the growth of a control cell line from which C426 was derived.
Cells were transferred to Sigma Advanced Fed Batch media with 5 uM glutamine and to an initial a density of 0.3×10^6 live cells/ml. Parallel cultures were grown (a) in the presence of HT, (b) in the absence of HT and (c) in the absence of HT and the presence of 50 nM MTX. At day 4, all cultures were diluted to adjust viable cell densities to 0.3×10^6 cell/ml. At day 8, all cultures were again diluted to adjust viable cell densities to 0.3×10^6 cell/ml. At day 13, all cultures except for the culture of C426 with 50 nM MTX were again diluted to adjust viable cell densities to 0.3×10^6 cell/ml.
Table 12. Growth of a clonal cell line with amiRNA targeted toward dihydrofolate reductase. […] Viable cell densities were measured at various times after the beginning of the experiment: the cell line is shown in column A, the presence of HT is indicated in column B and the concentration of MTX is shown in column C. […]

B1: SEQ ID NO: 210: three-hairpin amiRNA, guides SEQ ID NOs 82, 83, 84 complementary to Cricetulus griseus dihydrofolate reductase mRNA (nucleic acid)
chain: ATCTGATCTTCTGAAGAAAATATATTTCTTTTTATTCATAGCTCTTAACTAGTGGTGATAGCAATGTCAGCAGTGCCTTAACTCATAGATCTAAAGCCAAGTGAAGCCACAGATGTTGGCTTTAGCTCTATGAGTTCAAGTAAGGTTGACCATACTCTACTCTAGAGTTGTGTTTTAATGTATATTAATGTTACTAATGTGTTTACTAGTGGTGATAGCAATGTCAGCAGTGCCTTAGAGTACAACAGTTGCCCAGGGTGAAGCCACAGATGCCTGGGCAACCGTTGTACTCTCAAGTAAGGTTGACCATACTCTACTCTAGGTTATTTTTAGTATGATTCTGTAAAAATGAATTAATACTAACTAGTGGTGATAGCAATGTCAGCAGTGCCTTTGTTTAGAATTATACAGGGGCGTGAAGCCACAGATGGCCCCTGTATCATTCTAAACACAAGTAAGGTTGACCATACTCTACTCTAGTCAGTTTTATTGATAGTCTTTTCAGTATTATTGATAATCTT
  effect of MTX in the growth media on growth: sensitizes cells to the presence of MTX in the growth media
